In patent publication US20240409906, “INTEGRASES, LANDING PAD ARCHITECTURES, AND ENGINEERED CELLS COMPRISING THE SAME” (Asimov Inc., published 2024):

Key:
Assay in all cases: cell_activity; attB x attP EGFP inversion reporter, HEK293FT
Int27 = biological target: T1, Int27 (Lactococcus lactis subsp. lactis CV56); conditions: tags: C-terminal GS linker-SV40 NLS
T1 chain: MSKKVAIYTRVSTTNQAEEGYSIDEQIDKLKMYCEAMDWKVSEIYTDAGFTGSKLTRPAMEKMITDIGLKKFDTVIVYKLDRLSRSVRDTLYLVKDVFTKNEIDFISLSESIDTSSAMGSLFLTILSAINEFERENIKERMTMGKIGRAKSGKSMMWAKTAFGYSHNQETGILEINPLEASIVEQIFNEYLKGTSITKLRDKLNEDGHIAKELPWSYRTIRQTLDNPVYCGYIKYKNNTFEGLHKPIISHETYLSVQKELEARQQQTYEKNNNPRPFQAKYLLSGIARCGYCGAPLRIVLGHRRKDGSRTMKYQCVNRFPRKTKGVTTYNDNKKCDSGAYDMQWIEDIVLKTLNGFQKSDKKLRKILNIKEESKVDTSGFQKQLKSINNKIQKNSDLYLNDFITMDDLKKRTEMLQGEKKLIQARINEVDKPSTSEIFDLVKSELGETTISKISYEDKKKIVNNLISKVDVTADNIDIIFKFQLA

Int32 = biological target: T2, Int32 (Rhodococcus jostii RHA1); conditions: tags: C-terminal GS linker-SV40 NLS; chain copies: 4
T2 chain: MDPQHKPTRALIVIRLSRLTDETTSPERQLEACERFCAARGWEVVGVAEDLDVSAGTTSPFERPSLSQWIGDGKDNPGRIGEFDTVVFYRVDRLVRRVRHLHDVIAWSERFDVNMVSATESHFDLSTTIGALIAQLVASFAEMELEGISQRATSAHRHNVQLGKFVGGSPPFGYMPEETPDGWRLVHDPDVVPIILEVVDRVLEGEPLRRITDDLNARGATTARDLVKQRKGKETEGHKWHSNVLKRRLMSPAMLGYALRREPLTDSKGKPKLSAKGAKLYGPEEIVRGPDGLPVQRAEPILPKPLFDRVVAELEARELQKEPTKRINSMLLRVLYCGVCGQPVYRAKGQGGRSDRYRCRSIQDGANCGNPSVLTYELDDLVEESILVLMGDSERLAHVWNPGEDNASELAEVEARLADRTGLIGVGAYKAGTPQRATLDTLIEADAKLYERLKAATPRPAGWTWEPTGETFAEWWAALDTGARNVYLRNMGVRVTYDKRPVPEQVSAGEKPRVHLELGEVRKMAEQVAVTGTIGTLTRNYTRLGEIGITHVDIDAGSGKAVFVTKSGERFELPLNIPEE

Int5 = biological target: T3, Int5 (Streptomyces phage PhiK38-1); conditions: tags: C-terminal GS linker-SV40 NLS
T3 chain: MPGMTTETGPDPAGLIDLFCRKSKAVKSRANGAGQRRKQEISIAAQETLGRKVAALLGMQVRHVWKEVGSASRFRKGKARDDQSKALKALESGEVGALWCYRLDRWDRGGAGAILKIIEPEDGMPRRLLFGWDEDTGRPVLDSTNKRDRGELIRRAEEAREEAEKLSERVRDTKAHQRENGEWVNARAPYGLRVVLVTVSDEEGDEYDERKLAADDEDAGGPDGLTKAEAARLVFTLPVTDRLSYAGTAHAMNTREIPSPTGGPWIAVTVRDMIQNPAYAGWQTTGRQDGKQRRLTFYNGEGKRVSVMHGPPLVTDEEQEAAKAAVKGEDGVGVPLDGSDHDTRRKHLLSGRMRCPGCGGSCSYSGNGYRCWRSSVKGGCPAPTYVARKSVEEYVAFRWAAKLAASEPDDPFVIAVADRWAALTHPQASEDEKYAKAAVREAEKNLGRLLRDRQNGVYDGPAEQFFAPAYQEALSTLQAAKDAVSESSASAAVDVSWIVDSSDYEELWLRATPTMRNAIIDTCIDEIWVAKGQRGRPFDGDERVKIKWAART

Int34 = biological target: T4, Int34 (Staphylococcus lugdunensis HKU09-01); conditions: tags: C-terminal GS linker-SV40 NLS; chain copies: 4
T4 chain: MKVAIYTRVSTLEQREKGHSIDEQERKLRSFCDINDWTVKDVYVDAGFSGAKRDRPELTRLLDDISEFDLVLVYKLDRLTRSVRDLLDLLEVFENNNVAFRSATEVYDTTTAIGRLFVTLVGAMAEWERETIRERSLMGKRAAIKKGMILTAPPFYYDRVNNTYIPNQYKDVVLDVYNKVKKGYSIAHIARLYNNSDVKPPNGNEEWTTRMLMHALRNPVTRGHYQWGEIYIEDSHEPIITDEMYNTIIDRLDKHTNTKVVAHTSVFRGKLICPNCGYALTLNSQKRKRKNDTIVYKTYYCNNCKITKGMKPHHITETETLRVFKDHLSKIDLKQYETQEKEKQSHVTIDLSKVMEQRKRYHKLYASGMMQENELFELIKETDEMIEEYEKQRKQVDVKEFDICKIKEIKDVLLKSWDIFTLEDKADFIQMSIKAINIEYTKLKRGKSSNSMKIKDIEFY

Int7 = biological target: T5, Int7 (Geobacillus sp. Y412MC61); conditions: tags: C-terminal GS linker-SV40 NLS
T5 chain: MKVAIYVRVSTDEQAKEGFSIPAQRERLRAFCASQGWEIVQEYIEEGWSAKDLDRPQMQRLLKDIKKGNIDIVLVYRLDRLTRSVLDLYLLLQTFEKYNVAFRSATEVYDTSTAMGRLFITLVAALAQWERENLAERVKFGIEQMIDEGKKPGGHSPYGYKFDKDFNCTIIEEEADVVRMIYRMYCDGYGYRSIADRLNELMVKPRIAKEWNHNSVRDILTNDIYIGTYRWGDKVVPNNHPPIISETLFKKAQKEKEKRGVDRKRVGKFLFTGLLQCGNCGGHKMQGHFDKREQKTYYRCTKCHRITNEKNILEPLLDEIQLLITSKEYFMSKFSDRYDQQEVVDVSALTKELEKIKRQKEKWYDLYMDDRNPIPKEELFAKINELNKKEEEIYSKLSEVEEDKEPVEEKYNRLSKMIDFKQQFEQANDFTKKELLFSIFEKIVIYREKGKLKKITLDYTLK

B1: Int27 attB (dsDNA)
DNA 1: AATACTAATAATAGCTAGTACAATTAACATCTCTATCAAAGTAAAAGCTTTTAGCTCTTTCT
DNA 2: AGAAAGAGCTAAAAGCTTTTACTTTGATAGAGATGTTAATTGTACTAGCTATTATTAGTATT
With B1 the binding signal (Int27) was 2.2 fraction of Bxb1.

B2: Int32 attB (dsDNA)
DNA 1: ATCGCGCAGAACGGTGCGGTGATCAGTGAGTACGCACCGGGCACGACACCGGCGAAGCATCG
DNA 2: CGATGCTTCGCCGGTGTCGTGCCCGGTGCGTACTCACTGATCACCGCACCGTTCTGCGCGAT
With B2 the binding signal (Int32) was 0.137 fraction of Bxb1.

B3: Int32 attP (dsDNA)
DNA 1: CTATGTGGTGGTAATAGCGAGTAGGGGACTACTCGCTCCAGGTACATTAACACCATGGA
DNA 2: TCCATGGTGTTAATGTACCTGGAGCGAGTAGTCCCCTACTCGCTATTACCACCACATAG
In the case of B3, the binding signal (Int32) is reported as 0.137 fraction of Bxb1.

B4: Int5 attB (dsDNA)
DNA 1: GAGCGCCGGATCAGGGAGTGGACGGCCTGGGAGCGCTACACGCTGTGGCTGCGGTCGGTGC
DNA 2: GCACCGACCGCAGCCACAGCGTGTAGCGCTCCCAGGCCGTCCACTCCCTGATCCGGCGCTC
For B4, the binding signal (Int5) was 0.152 fraction of Bxb1.

B5: Int34 attB (dsDNA)
DNA 1: AATCTGCAAACATGTATGGCGGTACATGTATCAACATTGGTTGTATTCCTACAAAGACACTCAT
DNA 2: ATGAGTGTCTTTGTAGGAATACAACCAATGTTGATACATGTACCGCCATACATGTTTGCAGATT
B5 was tested, and the binding signal (Int34) was 0.408 fraction of Bxb1.

B6: Int34 attP (dsDNA)
DNA 1: ATTTTTGTACGGAAGTAGATACTATCTTTCAATATCCATGTTACTTAGTGCCATACAAAAA
DNA 2: TTTTTGTATGGCACTAAGTAACATGGATATTGAAAGATAGTATCTACTTCCGTACAAAAAT
With B6 the binding signal (Int34) was 0.408 fraction of Bxb1.

B7: Int5 attP (dsDNA)
DNA 1: CCCTAATACGCAAGTCGATAACTCTCCTGGGAGCGTTGACAACTTGCGCACCCTGATCTG
DNA 2: CAGATCAGGGTGCGCAAGTTGTCAACGCTCCCAGGAGAGTTATCGACTTGCGTATTAGGG
With B7 the binding signal (Int5) was 0.152 fraction of Bxb1.

B8: Int7 attB (dsDNA)
DNA 1: AGACGAGAAACGTTCCGTCCGTCTGGGTCAGTTGGGCAAAGTTGATGACCGGGTCGTCCGTT
DNA 2: AACGGACGACCCGGTCATCAACTTTGCCCAACTGACCCAGACGGACGGAACGTTTCTCGTCT
In the case of B8, the binding signal (Int7) is reported as 0.096 fraction of Bxb1.

B9: Int7 attP (dsDNA)
DNA 1: GTGTTATAAACCTGTGTGAGAGTTAAGTTTACATGCCTAACCTTAACTTTTACGCAGGTTCAGCTT
DNA 2: AAGCTGAACCTGCGTAAAAGTTAAGGTTAGGCATGTAAACTTAACTCTCACACAGGTTTATAACAC
In the case of B9, the binding signal (Int7) is reported as 0.096 fraction of Bxb1.
